Source: patent publication US20250215403A1, “Compositions and Methods for Cardiac Tissue Regeneration” (Temple University - Of The Commonwealth System Of Higher …, priority 2022, published 2025)

Tests used:
[1] = system: serine synthesis pathway (SSP); experiment: 13C glucose isotopic tracer metabolic flux analysis in neonatal rat CMs; format: cell-based
Experimental: P3 neonatal rat CMs (2×10^6) were cultured in DMEM and transfected with Luc or PSAT1 modRNA. After 6 hours medium was changed with ^13C glucose-containing DMEM. Samples were collected at 10 min, 2 hours and 18 hours by flash freezing the cell culture plates using liquid nitrogen and stored at −80° C. Metabolites were extracted from cells using 80% methanol (Magadum A., et al., Circulation. 2020, 141 (15): 1249-1265). Targeted LC/MS analyses were performed on a Q Exactive Orbitrap mass spectrometer (Thermo Scientific) coupled to a Vanquish UPLC system (Thermo Scientific). The Q Exactive was operated in polarity-switching mode. A Sequant ZIC-HILIC column (2.1 mm i.d.×150 mm, Merck) was used for separation of metabolites with a flow rate was 150 μL/min. […] Relative metabolite quantitation was performed based on peak area for each metabolite. All data analyses were done using scripts written in house (Metabolomics Facility, Biotechnology Resource Center, Cornell University).

cell cycle markers = experiment: qPCR of cell-cycle-promoting genes and cell-cycle inhibitors in heart post-MI; format: in vivo, mouse; settings: 2 days post-MI; compared to Luc modRNA
Experimental: Total RNA was isolated using TRIzol™ RNA isolation and RNeasy® (Qiagen) then reverse transcribed with High-Capacity cDNA Reverse Transcription Kit (Applied Biosystems), according to the manufacturer's instructions. Real-time qPCR analyses were performed on a StepOnePlus™ Real-Time PCR System using SYBR™ Green (Applied Biosystems). The primer sequences were synthesized by IDT (see Table 4 below). Data were normalized to 18s expression, where appropriate (endogenous controls). Fold-changes in gene expression were determined by the […] method and were presented relative to an internal control.

β-catenin = β-catenin immunostaining in CM nucleus and cytoplasm; format: cell-based, rat; settings: NRVM; 48 hours after modRNA
Experimental: Mice hearts were harvested, weighed, and fixed in 4% PFA/PBS overnight on shaker and then washed with PBS for 1 hour and incubated in 30% sucrose/PBS at 4° C. for 12-18 hours. Hearts were then fixed in OCT and frozen at −80° C. (Magadum A., et al., Circulation. 2020, 141 (15): 1249-1265). Transverse heart sections (6-8 μm) were made using a cryostat. Frozen sections were rehydrated in PBS for 5-10 min followed by permeabilization with PBS with 0.1% Triton™ X100 (PBST) for 7-8 min. Heart sections were then treated with 3% H2O2 for 5 min and washed (3×5 min) with PBST. The samples were then blocked with PBS+10% Donkey normal serum+0.1% Triton™ X100 (PBSST) for 1 hour at room temperature. Primary antibodies (see complete list of primary antibodies used for this Example in Table 2 below) diluted in PBST were added and incubated overnight at 4° C. […] For immunostaining with wheat germ agglutinin (WGA) for CM size quantification, images were captured at 40× magnification, and ImageJ was used to determine the area of each cell. Quantitative analyses involved counting of multiple fields from 5-8 mouse hearts per group, and 3-4 sections/heart (˜50 cells per field assessed, for a total ˜250 cells per sample). […] BrdU positive CMs were counted in multiple fields from three independent samples per group and 3 sections/heart. The total number of CMs counted was ˜1-1.5×10^3 CMs per section. […]

B1: PSAT1 modRNA: modified mRNA with N1-methylpseudouridine, transcribed in vitro, encoding phosphoserine aminotransferase 1 (ORF SEQ ID NO: 1, RNA SEQ ID NO: 2) (nucleic acid)
chain: AUGGAAGCCACCAAGCAAGUGGUUAACUUUGGGCCCGGGCCUGCCAAGCUGCCACACUCGGUAUUGUUGGAGAUCCAGAAGCAGCUACUAGACUACAGAGGACUCGGCAUCAGUGUGCUCGAAAUGAGUCACAGGUCAUCAGAUUUUGCCAAGAUUAUUGGCAAUACAGAGAAUCUUGUGAGGGAAUUGCUAGCUGUUCCCAACAACUACAAGGUGAUCUUUGUACAAGGAGGUGGGUCUGGCCAGUUCAGUGCUGUCCCCUUAAAUCUGAUUGGCCUGAAAGCUGGAAGGAGUGCUGACUACGUGGUGACCGGAGCUUGGUCAGCUAAGGCUGCGGAAGAAGCCAAGAAGUUUGGAACGGUGAACAUUGUCCACCCUAAACUUGGAAGUUACACAAAAAUUCCAGACCCAAGCACCUGGAACCUCAACCCGGACGCCUCCUAUGUAUACUUCUGUGCAAACGAGACUGUGCACGGGGUGGAGUUUGACUUCGUACCUGACGUCAAGGGAGCGGUGCUGGUCUGUGACAUGUCCUCAAACUUCUUAUCCAGGCCGGUGGAUGUUUCCAAGUUUGGUGUGAUUUUCGCUGGUGCUCAGAAGAAUGUUGGCUCUGCCGGGGUGACGGUGGUGAUUGUCCGGGAUGACCUGCUGGGGUUCUCGCUCAGAGAGUGCCCAUCAGUCCUUGACUACAAAGUGCAGGCUGGGAACAACUCUUUGUAUAACACACCUCCGUGCUUCAGCAUCUACGUCAUGGGCAUGGUCCUGGAAUGGAUCAAGAACAACGGCGGGGCCGCAGCCAUGGAGAAGCUCAGCUCCAUCAAAUCCCAAAUGAUUUAUGAGAUCAUUGAUAAUUCUCAAGGAUUUUAUGUAUGCCCAGUGGAGCGCCAGAAUAGAAGCAGGAUGAACAUCCCAUUUCGCAUUGGCAACGCCAAAGGAGACGAAGCUUUGGAAAAGCGGUUUCUUGACAAGGCGGUAGAACUCAACAUGAUCUCCUUGAAGGGGCACAGGUCAGUGGGAGGCAUUCGUGCCUCUCUGUAUAACGCUGUCACAACCGAAGACGUUGAGAAGCUGGCGGCCUUCAUGAAGAAUUUCUUGGAGAUGCAUCAGCUGUGA
modifications: N1-methylpseudouridine
Q: What does the source list for B1?
A: glutathione levels ([1]; 13C glucose flux): Increased; purines AMP and GMP levels ([1]; 13C glucose flux): increased; TCA cycle intermediates ([1]; 13C glucose, vs Luc modRNA): Increased levels; metabolites involved in the serine synthesis pathway (SSP), including phosphoserine, serine, and glycine ([1]; 13C glucose, vs Luc modRNA): significant elevation; expression of positive cell cycle markers (cell cycle markers): induced; negative regulators of cell cycle markers (cell cycle markers): inhibiting; stabilized β-catenin localisation to CM nuclei (β-catenin): translocated; β-catenin stabilization (β-catenin): significantly induced
